Measurements: patent US20250026842A1

Target: pre-anti-drug antibodies (pre-ADAs) in individual serum samples taken from healthy humans
Test: ELISA, coated sdAb, 40 healthy donor sera (1:5), anti-human lambda chain-HRP, OD415

B1: P2-1 (protein)
VH: HHHHHHGGGGSEVQLLESGGGLVQPGGSLRLSCAASGFTFAHETMVWVRQAPGKGLEWVSHIPPDGQDPFYADSVKGRFTISRDNSKNTLYLQMNSLRAEDTAVYHCALLPKRGPWFDYWGQGTLVTVSS
- percent of serum samples with detectable sdAb-reactive pre-ADAs: 57.5%

B2: P2-2 (protein)
VH: HHHHHHGGGGSEVQLLESGGGLVQPGGSLRLSCAASGFTFAHETMVWVRQAPGKGLEWVSHIPPDGQDPFYADSVKGRFTISRDNSKNTLYLQMNSLRAEDTAVYHCALLPKRGPWFDYWGQGTLVTVSSA
- percent of serum samples with detectable sdAb-reactive pre-ADAs: 12.5%
